Reference: publication PMC5711931

Assays:
[1] = target: F-actin of the thin filaments in ghost muscle fibres (rabbit psoas) (rabbit (endogenous in m. psoas fibres)) (UniProt P68135)
[2] = target: F-actin of the thin filaments in ghost muscle fibres (rabbit psoas) (rabbit (endogenous in m. psoas fibres)) (UniProt P68135); test: incorporation into ghost muscle fibres, washing, SDS-PAGE; ghost fibres with thin filaments reconstructed with Tpm and TN, decorated with S1; absence of nucleotide
[3] = target: F-actin of the thin filaments in ghost muscle fibres (rabbit psoas) (rabbit (endogenous in m. psoas fibres)) (UniProt P68135); test: incorporation into ghost muscle fibres, washing, SDS-PAGE; ghost fibres with thin filaments reconstructed with Tpm and TN, decorated with S1; presence of ADP (2.5 mM ADP, 3 mM MgCl2)
[4] = target: F-actin of the thin filaments in ghost muscle fibres (rabbit psoas) (rabbit (endogenous in m. psoas fibres)) (UniProt P68135); test: incorporation into ghost muscle fibres, washing, SDS-PAGE; ghost fibres with thin filaments reconstructed with Tpm and TN, decorated with S1; presence of AMPPNP (16 mM AMPPNP, 8 mM MgCl2)
[5] = target: F-actin of the thin filaments in ghost muscle fibres (rabbit psoas) (rabbit (endogenous in m. psoas fibres)) (UniProt P68135); test: incorporation into ghost muscle fibres, washing, SDS-PAGE; ghost fibres with thin filaments reconstructed with Tpm and TN, decorated with S1; presence of ATP (5 mM ATP, 18 mM MgCl2, creatine phosphate and creatine kinase)
[6] = target: F-actin of the thin filaments in ghost muscle fibres (rabbit psoas) (rabbit (endogenous in m. psoas fibres)) (UniProt P68135); test: fluorescence intensity of the labelled protein in ghost muscle fibres (polarized fluorimeter); AF-Tpm-TN incorporated into the actin filaments of ghost fibres; Isum of the four polarized intensity components, n = 25; excitation 436 ± 5 nm, emission 500-600 nm
[7] = target: F-actin of the thin filaments in ghost muscle fibres (rabbit psoas) (rabbit (endogenous in m. psoas fibres)) (UniProt P68135); test: incorporation into ghost muscle fibres, washing, SDS-PAGE with densitometry; single rabbit psoas ghost fibres incubated with Tpm and TN in 50 mM KCl, 3 mM MgCl2, 1 mM DTT, 6.7 mM K, Na phosphate buffer, pH 7.0; unbound Tpm and TN washed out for 15 min; 8-10 fibres per gel lane, 12% SDS-PAGE, ImageJ

Chain of myosin subfragment-1 from rabbit fast skeletal muscle myosin (domain or fragment) (Q28641 whole entry, the tested form may be a part): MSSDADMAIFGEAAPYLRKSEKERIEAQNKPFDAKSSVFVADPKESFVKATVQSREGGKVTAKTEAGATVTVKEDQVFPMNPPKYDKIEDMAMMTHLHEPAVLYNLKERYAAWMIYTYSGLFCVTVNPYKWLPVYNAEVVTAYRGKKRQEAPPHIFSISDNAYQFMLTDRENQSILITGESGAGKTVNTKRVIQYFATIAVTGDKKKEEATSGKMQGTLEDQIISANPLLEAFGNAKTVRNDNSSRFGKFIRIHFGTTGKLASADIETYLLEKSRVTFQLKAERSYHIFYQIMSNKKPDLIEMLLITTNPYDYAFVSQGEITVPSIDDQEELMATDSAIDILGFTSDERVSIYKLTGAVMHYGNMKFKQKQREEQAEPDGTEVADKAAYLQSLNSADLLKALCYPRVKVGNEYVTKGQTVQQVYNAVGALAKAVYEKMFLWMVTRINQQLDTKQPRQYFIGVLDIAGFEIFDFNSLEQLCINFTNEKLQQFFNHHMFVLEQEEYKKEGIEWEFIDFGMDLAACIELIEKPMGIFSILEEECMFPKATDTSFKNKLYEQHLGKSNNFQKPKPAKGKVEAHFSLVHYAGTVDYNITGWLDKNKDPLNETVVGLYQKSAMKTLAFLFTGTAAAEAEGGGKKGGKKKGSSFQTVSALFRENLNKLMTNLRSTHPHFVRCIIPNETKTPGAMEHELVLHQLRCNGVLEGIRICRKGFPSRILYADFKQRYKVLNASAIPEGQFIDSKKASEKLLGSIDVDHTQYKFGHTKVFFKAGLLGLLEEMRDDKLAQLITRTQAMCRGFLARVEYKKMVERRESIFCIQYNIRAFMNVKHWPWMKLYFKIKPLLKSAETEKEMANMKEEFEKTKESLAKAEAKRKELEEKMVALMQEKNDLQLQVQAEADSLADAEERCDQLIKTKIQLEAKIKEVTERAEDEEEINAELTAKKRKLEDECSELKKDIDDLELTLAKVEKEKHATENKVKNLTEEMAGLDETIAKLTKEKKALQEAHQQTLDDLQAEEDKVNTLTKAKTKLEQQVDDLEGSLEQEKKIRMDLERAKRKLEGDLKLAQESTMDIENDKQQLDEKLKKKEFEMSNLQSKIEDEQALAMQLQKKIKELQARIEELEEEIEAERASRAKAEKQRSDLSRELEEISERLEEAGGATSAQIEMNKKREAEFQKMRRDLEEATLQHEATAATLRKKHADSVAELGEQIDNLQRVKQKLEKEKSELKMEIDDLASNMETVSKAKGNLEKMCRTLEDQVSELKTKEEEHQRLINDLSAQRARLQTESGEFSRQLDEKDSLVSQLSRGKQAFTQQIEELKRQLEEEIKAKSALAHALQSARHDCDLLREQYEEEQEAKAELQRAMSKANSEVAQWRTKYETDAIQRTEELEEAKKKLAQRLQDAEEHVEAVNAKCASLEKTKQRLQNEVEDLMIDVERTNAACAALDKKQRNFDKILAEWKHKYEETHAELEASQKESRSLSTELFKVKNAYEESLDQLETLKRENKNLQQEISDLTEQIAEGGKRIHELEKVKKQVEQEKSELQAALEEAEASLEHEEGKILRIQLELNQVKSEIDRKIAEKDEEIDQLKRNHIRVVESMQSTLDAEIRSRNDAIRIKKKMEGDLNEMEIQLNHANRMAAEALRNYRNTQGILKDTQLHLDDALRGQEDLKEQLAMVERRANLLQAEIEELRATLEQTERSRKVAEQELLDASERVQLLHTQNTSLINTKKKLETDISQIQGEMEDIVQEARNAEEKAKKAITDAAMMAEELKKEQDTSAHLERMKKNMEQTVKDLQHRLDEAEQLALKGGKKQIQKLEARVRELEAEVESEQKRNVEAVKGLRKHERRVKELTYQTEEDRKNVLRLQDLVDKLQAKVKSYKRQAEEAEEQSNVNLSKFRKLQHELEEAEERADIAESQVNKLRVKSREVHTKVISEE

Q: How did the ΦE of the polarized fluorescence of AEDANS-S1 in ghost fibres containing ΔE139Tpm against fibres containing WTTpm; TN, high Ca2+, no nucleotide [1] turn out when “myosin subfragment-1 from rabbit fast skeletal muscle myosin (domain or fragment)” was run?
A: 0.4 °

Q: What about the molar ratio of S1 to actin (1:x, value is x) (mol actin per mol S1) [2] of the same substance?
A: 5

Q: And the molar ratio of S1 to actin (1:x, value is x) (mol actin per mol S1) [3]?
A: 5

Q: And the molar ratio of S1 to actin (1:x, value is x) (mol actin per mol S1) [4]?
A: 8

Q: What about the molar ratio of S1 to actin (1:x, value is x) (mol actin per mol S1) [5] of the same substance?
A: 14

Q: How did the fluorescence intensity Isum of the bound labelled Tpm [6] turn out when “recombinant tropomyosin Tpm2.2 with the E139 deletion labelled with 5-IAF (natural protein)” was run?
A: 266

Q: “recombinant tropomyosin Tpm2.2 with the E139 deletion, ββ-homodimer (natural protein)” was tested. Which amount bound, percent of the amount of WTTpm [7] did it give?
A: 85%

Q: For “recombinant wild-type tropomyosin Tpm2.2 labelled with 5-IAF (natural protein)”, which fluorescence intensity Isum of the bound labelled Tpm [6] is on record?
A: 236
